± gives the standard deviation of the averaged measurements.
test system: ATP; assay: switch fluorescence ratio, 500 uM ATP over buffer (Cy3 cluster intensity, sum of 5 cycles each) (fold (ratio)); higher = stronger signal-on switching upon ATP binding; sequences stand for … in TCGTCGGCAGCGTCAGATGTGTATAAGAGACAGTTTTTTTTTTTTTTTTTTTTTTTTT…TC; settings: aptamer strand: ATP DNA aptamer (quencher-CACCTGGGGGAGTATTGCGGAGGAAGG + anchor), 100 nM annealed; ATP concentration: 500 uM
How it was run: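 For every switch-domain sequence, the fluorescence ratio is the mean of per-cluster values, each being summed target-cycle Cy3 intensity over summed buffer-cycle Cy3 intensity. Clusters outside 100-1000 RFU were excluded. On a modified Illumina MiSeq flow-cell, the Cy3-labelled switching-strand clusters were annealed to 100 nM quencher-labelled ATP aptamer, imaged in selection buffer and then after 15 min with 500 uM ATP at 22 °C. Five such cycles were run, with NaOH stripping and re-annealing between them.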
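Also: ATP exposure 15 min at 22 °C before imaging.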

Point of comparison: ACGGAAAAAG, switch fluorescence ratio 1.01 ± 0.026. Against it:
- ACGCAGTATG — within error, 1.03 ± 0.031
- ACGCCGGGCT — within error, 1.07 ± 0.054
- ACGCGACGGA — within error, 1.07 ± 0.079
- ACGCGCTTTA — within error, 0.99871 ± 0.00033
- ACGCGGAGTA — within error, 0.997 ± 0.038
- ACGCGGCGTG — within error, 0.982 ± 0.03
- ACGCGGCTAT — within error, 1.06 ± 0.033
- ACGCGGGGGA — within error, 1.03 ± 0.014
- ACGCGGGTAA — within error, 1.023 ± 0.0095
- ACGCGGTCCA — within error, 0.988 ± 0.019
- ACGCTTCTTG — within error, 1 ± 0.028
- ACGCTTGAAT — the same, 1.01 ± 0.023
- ACGGAATTGT — higher, 1.07 ± 0.029
- ACGGACATCT — higher, 1.28 ± 0.022
- ACGGACCATG — higher, 1.11 ± 0.042
- ACGGACCCGG — within error, 1.36 ± 0.42
- ACGGACGTTC — higher, 1.15 ± 0.015
- ACGGCATTAT — higher, 1.164 ± 0.0042
- ACGGCCTGTT — within error, 1.02 ± 0.017
- ACGGCCTTAT — within error, 0.991 ± 0.033
- ACGGCGAGAG — within error, 1.06 ± 0.03
- ACGGCGAGGT — within error, 1.03 ± 0.032
- ACGGCGAGTC — the same, 1.01 ± 0.024
- ACGGCTGCGG — within error, 0.987 ± 0.035
- ACGGCTGTGC — within error, 1.02 ± 0.013
- ACGGGACGCA — higher, 1.089 ± 0.0019
- ACGGGACGGA — within error, 1.034 ± 0.0065
- ACGGGACGTA — within error, 1.04 ± 0.014
- ACGGGCATTT — within error, 0.994 ± 0.04
- ACGGGCGGCG — within error, 0.979 ± 0.047
- ACGGGCTTCT — within error, 1.005 ± 0.0047
- ACGGGGGACT — within error, 1.02 ± 0.049
- ACGGGGGATT — within error, 1.03 ± 0.034
- ACGGGGGGCA — the same, 1.01 ± 0.048
- ACGGGGGGGC — within error, 1.09 ± 0.06
- ACGGGGGGGG — within error, 1.02 ± 0.048
- ACGGGGGGGT — within error, 1.09 ± 0.081
- ACGGGGTTGT — within error, 1 ± 0.024
- ACGGGTAAAT — the same, 1.01 ± 0.036
- ACGGGTGCGT — within error, 1.017 ± 0.0027
- ACGGTAACTC — higher, 1.27 ± 0.03
- ACGGTACGGA — higher, 1.21 ± 0.05
- ACGGTCCAGG — higher, 3 ± 0.5
- ACGGTCCGGG — within error, 1.06 ± 0.036
- ACGGTGAACC — within error, 0.989 ± 0.06
- ACGGTGAATG — within error, 1 ± 0.038
- ACGGTGACTA — higher, 1.1 ± 0.023
- ACGGTGATGG — within error, 1.018 ± 0.0071
- ACGGTGGTCG — lower, 0.913 ± 0.033
- ACGGTGTGGC — within error, 1.03 ± 0.072
- ACGGTTAGTC — within error, 1.04 ± 0.016
- ACGGTTCTTT — the same, 1.01 ± 0.03
- ACGGTTGAAT — within error, 0.9882 ± 0.0084
- ACGGTTTCGT — the same, 1.01 ± 0.014
- ACGGTTTCTG — within error, 1.04 ± 0.029
- ACGGTTTCTT — lower, 0.9771 ± 0.0039
- ACGGTTTGCG — within error, 0.979 ± 0.011
- ACGGTTTTGC — within error, 0.997 ± 0.013
- ACGTAACCTA — higher, 1.28 ± 0.014
- ACGTAATTGG — higher, 1.21 ± 0.01
- ACGTAGGGGG — within error, 0.988 ± 0.032
- ACGTAGTGGC — within error, 1.04 ± 0.02
- ACGTAGTGTC — within error, 1.03 ± 0.018
- ACGTATCTTG — higher, 1.08 ± 0.038
- ACGTATTAAT — higher, 1.12 ± 0.031
- ACGTATTTTC — higher, 1.171 ± 0.0024
- ACGTCCGTTT — within error, 1.04 ± 0.019
- ACGTCGCGGG — within error, 0.9877 ± 0.0019
- ACGTCTGGCT — within error, 0.996 ± 0.028
- ACGTCTTCAC — higher, 1.069 ± 0.002
- ACGTGACCCA — higher, 1.35 ± 0.071
- ACGTGGGGAG — higher, 1.08 ± 0.022
- ACGTGGGGTA — within error, 1.04 ± 0.022
- ACGTGGGGTC — within error, 1.02 ± 0.022
- ACGTGGGTCT — the same, 1.01 ± 0.028
- ACGTGGTAGC — within error, 1 ± 0.03
- ACGTGTATTT — within error, 1.08 ± 0.09
- ACGTGTGTTT — the same, 1.01 ± 0.017
- ACGTGTTTTG — within error, 1.02 ± 0.018
- ACGTTAGGGG — within error, 1.14 ± 0.14
- ACGTTATAAG — higher, 1.1 ± 0.011
- ACGTTCCGAG — higher, 2.54 ± 0.32
- ACGTTCCGCT — higher, 1.099 ± 0.003
- ACGTTCTATA — within error, 1.026 ± 0.0088
- ACGTTGATTC — within error, 1.03 ± 0.047
- ACGTTGGGGG — the same, 1.01 ± 0.028
- ACGTTGGTGG — within error, 1 ± 0.012
- ACGTTGTTTT — within error, 0.984 ± 0.011
- ACGTTTAGAA — the same, 1.01 ± 0.029
- ACGTTTTAAG — the same, 1.01 ± 0.032
- ACGTTTTGTC — within error, 1 ± 0.061
- ACGTTTTTAG — within error, 1 ± 0.013
- ACTAAAATAT — within error, 1.021 ± 0.0093
- ACTAAAGACA — the same, 1.0077 ± 0.00019
- ACTAAAGGCT — the same, 1.01 ± 0.015
- ACTAAAGGG — within error, 1.02 ± 0.028
- ACTAAAGGGC — higher, 1.07 ± 0.034
- ACTAACGGGG — higher, 1.35 ± 0.084
- ACTAAGCTTG — within error, 1 ± 0.033

From the supplement of paper PMC10126150
